For this assay, the target named is human 4-1BB on Jurkat-hu4-1BB-NFκB-luc2 reporter cells (human) (UniProt Q07011). Briefly: cell-based or functional assay.
human 4-1BB on Jurkat-hu4-1BB-NFκB-luc2 reporter cells (human), sequence (Q07011 24-255 limits assumed): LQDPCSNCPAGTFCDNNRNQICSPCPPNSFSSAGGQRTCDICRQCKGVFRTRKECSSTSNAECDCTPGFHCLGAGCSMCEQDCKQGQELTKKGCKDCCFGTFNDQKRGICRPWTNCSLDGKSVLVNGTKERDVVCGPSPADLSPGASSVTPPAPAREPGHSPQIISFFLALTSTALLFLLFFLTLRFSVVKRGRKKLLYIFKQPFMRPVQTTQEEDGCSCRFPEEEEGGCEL

For the substance “2+1 bispecific agonistic anti-4-1BB (20H4.9) x anti-FAP (4B9) huIgG1 P329GLALA antibody (bispecific antibody)”, the EC50 of NFκB-luciferase activation in Jurkat-hu4-1BB-NFκB-luc2 cells with NIH/3T3-huFAP clone 19 was determined as 0.02 nM and the area under the curve (AUC) of NFκB-luciferase activation in Jurkat-hu4-1BB-NFκB-luc2 cells with NIH/3T3-huFAP clone 19 is 53500.

Values taken from patent US20210324108A1.
